This sample holds only a part of the variants without activity.
Assays:
biotinyl-Leu-oxazolone = test: self-aminoacylation, catalytic enhancement (BLO) (fold over background); higher = more active; k-Seq, kA / k0A0; sequences stand for … in GGGAAUGGAUCCACAUCUACGAAUUC…UUCACUGCAGACUUGACGAAGCUG
Procedure, shortened: (§1)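 Each biotinyl-aminoacyl-oxazolone, at 2–1250 μM, was incubated with mutagenized RNA pools (0.43 μM) carrying a 21-nt variable region. The 50 μL reactions contained HEPES/NaCl/KCl/MgCl2/CaCl2 buffer with 5% acetonitrile at pH 6.9–7.0 and ran for 90 minutes at room temperature. After streptavidin capture, RNA was measured by qPCR in triplicate and by Illumina sequencing, and catalytic enhancement was calculated as median kA over the uncatalyzed rate from a pseudo-first-order fit of per-sequence fraction reacted.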

biotinyl-Ile-oxazolone = test: self-aminoacylation, catalytic enhancement (BIO) (fold over background); higher = more active; k-Seq, kA / k0A0; sequences stand for … in GGGAAUGGAUCCACAUCUACGAAUUC…UUCACUGCAGACUUGACGAAGCUG
Procedure, shortened: as §1

biotinyl-Trp-oxazolone = test: self-aminoacylation, catalytic enhancement (BWO) (fold over background); higher = more active; k-Seq, kA / k0A0; sequences stand for … in GGGAAUGGAUCCACAUCUACGAAUUC…UUCACUGCAGACUUGACGAAGCUG
Procedure, shortened: as §1

biotinyl-Val-oxazolone = test: self-aminoacylation, catalytic enhancement (BVO) (fold over background); higher = more active; k-Seq, kA / k0A0; sequences stand for … in GGGAAUGGAUCCACAUCUACGAAUUC…UUCACUGCAGACUUGACGAAGCUG
Procedure, shortened: as §1

biotinyl-Met-oxazolone = test: self-aminoacylation, catalytic enhancement (BMO) (fold over background); higher = more active; k-Seq, kA / k0A0; sequences stand for … in GGGAAUGGAUCCACAUCUACGAAUUC…UUCACUGCAGACUUGACGAAGCUG
Procedure, shortened: as §1

biotinyl-Phe-oxazolone = test: self-aminoacylation, catalytic enhancement (BFO) (fold over background); higher = more active; k-Seq, kA / k0A0; sequences stand for … in GGGAAUGGAUCCACAUCUACGAAUUC…UUCACUGCAGACUUGACGAAGCUG
Procedure, shortened: as §1

Sequence	self-aminoacylation (biotinyl-Leu-oxazolone)	self-aminoacylation (biotinyl-Ile-oxazolone)	self-aminoacylation (biotinyl-Trp-oxazolone)	self-aminoacylation (biotinyl-Val-oxazolone)	self-aminoacylation (biotinyl-Met-oxazolone)	self-aminoacylation (biotinyl-Phe-oxazolone)
AUUGACCUAGGUCAACGGGUG [Fam2.2 aminoacylation ribozyme variant]	2.43	2.46	2.72	2.31	2.6	8.47
AUUAGCCUGUUCAUCGAGUGA [Fam2.1 aminoacylation ribozyme variant]	5.5	3.04	7.22	3.27	5.64	18
ACUACCCUGAUCAUCGAGUGA [Fam2.1 aminoacylation ribozyme variant]	5.88	3.87	7.58	3.38	5.52	6.61
UUUACCCUGGUCAUCGAGUGA [Fam2.1 aminoacylation ribozyme variant]	60.9	24.6	71.3	27	68.9	428
CGAUUUCAAACAAUCGGUCUG [Fam1A.1 aminoacylation ribozyme variant]	1.63	1.74	5.97	1.66	1.46	16.4
AAGUUUGUUAAUAGUCGCAAU [Fam3.1 aminoacylation ribozyme variant]	1.51	1.73	1.94	1.45	1.5	2.29
AUUACCUUGGUGAUCGAGUGA [Fam2.1 aminoacylation ribozyme variant]	4.39	2.25	5.81	2.32	4.39	19.7
CCACACUACAAGCAUUCGGUC [Fam1B.1 aminoacylation ribozyme variant]	1.73	2.14	2.04	2.71	2.58	3.61
AAGUUUGCUCAUAGUCCCAAG [Fam3.1 aminoacylation ribozyme variant]	0.902	0.902	0.793	1.06	0.856	1.29
CUAAUUCACACAAUCGGUCUG [Fam1A.1 aminoacylation ribozyme variant]	0.85	0.912	0.598	0.771	0.874	0.759
AAGAUUGCUAAUAUUCGCAAG [Fam3.1 aminoacylation ribozyme variant]	1.58	2.02	2.51	1.5	1.42	1.44
CCACACAACAAGCAAUCGGUC [Fam1B.1 aminoacylation ribozyme variant]	0.863	0.894	0.693	0.899	0.781	1.15
AAGUUGGUUAAUAGUCGCAAG [Fam3.1 aminoacylation ribozyme variant]	1.46	1.4	1.81	1.24	1.42	1.87
AGUACCCUGGUCAUCAAGUGA [Fam2.1 aminoacylation ribozyme variant]	2.35	1.61	2.89	1.75	2.28	3.2
CUACUUCAAACAAUCUGCCUG [Fam1A.1 aminoacylation ribozyme variant]	0.957	0.913	0.605	0.751	1.04	1.33
AUUGCCCUGGUCAUCUAGUGA [Fam2.1 aminoacylation ribozyme variant]	8.79	3.81	10.3	4.24	8.83	70.6
AAGUUUGCUAAUUGUGGCAAG [Fam3.1 aminoacylation ribozyme variant]	0.988	0.735	0.773	0.817	0.688	0.701
AAGUAAGCUAAUAGUCGCAAG [Fam3.1 aminoacylation ribozyme variant]	1.43	1.55	1.5	1.33	1.18	2.82
CCACACUUCAAUCAAUAGGUC [Fam1B.1 aminoacylation ribozyme variant]	0.517	0.573	0.511	0.646	0.569	1.11
AUUCCUCUGGUCAUCGAGUGA [Fam2.1 aminoacylation ribozyme variant]	6.46	3.75	7.73	4.02	6.73	31.6
AAGUUUCCUAAUAGUCGCAAC [Fam3.1 aminoacylation ribozyme variant]	1.5	1.59	2.18	1.31	1.73	2.42
CUACUUCAAGCAAUCGGUCAG [Fam1A.1 aminoacylation ribozyme variant]	0.797	0.86	1.3	0.894	1.09	2.28
CCACACUUCAAUCAAUCGGUA [Fam1B.1 aminoacylation ribozyme variant]	0.609	0.79	0.739	0.849	0.749	0.825
AUUAACCUAGGUCAUUGGGUG [Fam2.2 aminoacylation ribozyme variant]	3.23	1.93	2.85	2.28	2.88	15.2
AUUCACAUAGGUCAUAGGGUG [Fam2.2 aminoacylation ribozyme variant]	2.3	1.55	1.66	1.54	2.17	2.85
AUUCACCUAGGUCAACGGGUU [Fam2.2 aminoacylation ribozyme variant]	1.26	1.22	0.946	1.16	1.33	0.45

Sequence	self-aminoacylation (biotinyl-Leu-oxazolone)	self-aminoacylation (biotinyl-Ile-oxazolone)	self-aminoacylation (biotinyl-Trp-oxazolone)	self-aminoacylation (biotinyl-Val-oxazolone)	self-aminoacylation (biotinyl-Met-oxazolone)	self-aminoacylation (biotinyl-Phe-oxazolone)
AGUCAACUAGGUCAUCGGGUG [Fam2.2 aminoacylation ribozyme variant]	8.39	5.91	9.37	4.95	7.24	49.9
CUACUUCACACAAUCGGUCUG [Fam1A.1 aminoacylation ribozyme variant]	0.694	0.775	0.689	0.811	0.685	0.869
AACUAUGCUAAUAGUCGCAAG [Fam3.1 aminoacylation ribozyme variant]	2.16	2.41				2.45
ACGCUUGCUAAUAGUCGCAAG [Fam3.1 aminoacylation ribozyme variant]		2.28	2.88		2.29	5.67
AUUCACCUAGGUCUUCGGGGG [Fam2.2 aminoacylation ribozyme variant]	3.62	3.04		3.04	2.43	12
AAAUUUGCUAAGAGUCGCAAG [Fam3.1 aminoacylation ribozyme variant]		2.05	2.51			2.61
CCACACCUCAAGCAAUCGCUC [Fam1B.1 aminoacylation ribozyme variant]	2.72	2.12	3.13		2.85	9.63
AUUCACAUAGGUCAUCUGGUG [Fam2.2 aminoacylation ribozyme variant]	3.86	2.1	3.03		2.89	15.7
AUUAACCUGGUCCUCGAGUGA [Fam2.1 aminoacylation ribozyme variant]	4.42	2.3	4.11		3.92	19.7
AUUACCCUGGUCAUCGCUUGA [Fam2.1 aminoacylation ribozyme variant]		2.09	3.08		2.25	10.7
CAGUUUGCUAAUAGUCGCGAG [Fam3.1 aminoacylation ribozyme variant]	3.12	2.33	3.86	2.01		12.2
AUUCACUUAGGUCAUCGGGUA [Fam2.2 aminoacylation ribozyme variant]		2.29		2.15	2.38	
GCACACUUCAAGCAACCGGUC [Fam1B.1 aminoacylation ribozyme variant]	2.46	2.31	4.35	2.43		2.92
AUUACACUCGUCAUCGAGUGA [Fam2.1 aminoacylation ribozyme variant]	3.87	2.13	4.43		3.51	18
CAACACUUCAAGCAAUCGGGC [Fam1B.1 aminoacylation ribozyme variant]	2.2	2.15		2.23	2.2	4.52
AUUCACCUAAGUCAUUGGGUG [Fam2.2 aminoacylation ribozyme variant]	3.65	2.31	2.6		3.48	20.5
AUUUACCUAGUUCAUCGGGUG [Fam2.2 aminoacylation ribozyme variant]	3.25	2.13	2.25		2.61	15.2
CUACUUCAAACACUCGGGCUG [Fam1A.1 aminoacylation ribozyme variant]	2.06	2.18		2.2		
AAGUUGGCUAACAGUCGCAAG [Fam3.1 aminoacylation ribozyme variant]		2.05	2.26			2.15
AUUCACCUAGGUCAUCGAGUU [Fam2.2 aminoacylation ribozyme variant]	4.79	2.69		2.25	3.3	7.47
AAGCUUGCUACUAGUCGCAAG [Fam3.1 aminoacylation ribozyme variant]	2.03	2.45	2.23		2.37	
CCACCCUUCAAGCAAUCGGGC [Fam1B.1 aminoacylation ribozyme variant]		2.06	2.65	3.02		15.4
AUUCACCUGGGUCAUCGGGCG [Fam2.2 aminoacylation ribozyme variant]	5.26	3.58	2.91	4.75	4.48	
CCACACUUCAUGCAAUCGGCC [Fam1B.1 aminoacylation ribozyme variant]	2.72	2.44		2.8	2.9	14.2
AAGCUUGCUGAUAGUCGCAAG [Fam3.1 aminoacylation ribozyme variant]		2.19	3.03	2.45	2.4	4.23
